# How the values were obtained:
# [1] = target: RPA (RPA70-RPA32-RPA14) (UniProt P27694;P15927;P35244 1-616;1-270;1-121); assay: EMSA
# [2] = target: SSB (E. coli, UniProt P0AGE0 1-178); assay: EMSA
# SSB, sequence (P0AGE0 whole entry): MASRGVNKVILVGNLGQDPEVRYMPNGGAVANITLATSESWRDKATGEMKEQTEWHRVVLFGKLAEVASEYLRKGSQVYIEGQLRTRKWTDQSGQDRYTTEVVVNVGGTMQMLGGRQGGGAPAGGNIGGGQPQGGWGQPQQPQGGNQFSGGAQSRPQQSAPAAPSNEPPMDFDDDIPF
# RPA (RPA70-RPA32-RPA14), sequence (P27694 whole entry, chain 1 of 3): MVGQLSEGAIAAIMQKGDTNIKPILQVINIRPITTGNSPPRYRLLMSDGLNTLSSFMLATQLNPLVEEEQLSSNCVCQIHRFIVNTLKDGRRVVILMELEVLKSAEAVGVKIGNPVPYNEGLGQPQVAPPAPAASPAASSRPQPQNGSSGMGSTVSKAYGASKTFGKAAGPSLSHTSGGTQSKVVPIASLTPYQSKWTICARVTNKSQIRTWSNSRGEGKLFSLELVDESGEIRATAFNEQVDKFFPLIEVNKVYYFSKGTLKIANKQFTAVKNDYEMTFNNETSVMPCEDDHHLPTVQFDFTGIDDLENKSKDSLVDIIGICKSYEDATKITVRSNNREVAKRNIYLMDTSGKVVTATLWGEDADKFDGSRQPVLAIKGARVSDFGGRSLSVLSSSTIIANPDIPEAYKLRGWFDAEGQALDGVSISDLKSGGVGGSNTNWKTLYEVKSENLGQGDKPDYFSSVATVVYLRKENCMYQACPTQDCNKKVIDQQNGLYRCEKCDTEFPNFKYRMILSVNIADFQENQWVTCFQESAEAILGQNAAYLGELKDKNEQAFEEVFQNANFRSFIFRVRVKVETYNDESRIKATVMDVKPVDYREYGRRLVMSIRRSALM
# RPA (RPA70-RPA32-RPA14), sequence (P15927 whole entry, chain 2 of 3): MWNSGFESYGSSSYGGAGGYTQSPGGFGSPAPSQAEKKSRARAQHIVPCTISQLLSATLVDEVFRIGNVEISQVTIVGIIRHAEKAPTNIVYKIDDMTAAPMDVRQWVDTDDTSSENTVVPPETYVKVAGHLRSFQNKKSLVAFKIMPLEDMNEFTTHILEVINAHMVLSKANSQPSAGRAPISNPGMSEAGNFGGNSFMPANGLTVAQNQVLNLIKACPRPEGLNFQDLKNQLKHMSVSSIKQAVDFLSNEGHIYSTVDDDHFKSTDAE
# RPA (RPA70-RPA32-RPA14), sequence (P35244 whole entry, chain 3 of 3): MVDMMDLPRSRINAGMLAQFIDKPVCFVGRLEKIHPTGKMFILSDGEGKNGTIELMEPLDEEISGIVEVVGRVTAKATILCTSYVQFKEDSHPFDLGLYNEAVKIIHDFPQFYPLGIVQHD
binder,measurement,setting,value
TTTTTTTTTTTTTTTTTTTTTTTTTTTTTT (ssDNA) [dT30],binding result,[1],binds
same,binding result,[2],binds
